Earlier results as cited in paper PMC6331645.

Molecular target: Raf1 RBD RBD (Homo sapiens) (UniProt P04049)

Kd: 20 nM
Substance: KRas (from UniProt P01116)
